Experiment in all cases: purified protein
Common to all, as to details: PLP-reconstituted holo-enzyme, 200 µM alpha-ketoglutarate, 500 µM NAD+, 5 U GDH, 10 mM Tris-HCl pH 8.0

Substrate in data set [1]: NCCC[C@H](N)C(=O)O
Substrate in data set [2]: CC(=O)N[C@@H](CCCN)C(=O)O
It is filed as biochemical, Escherichia coli.

Substrate in data set [3]: NCCC[C@H](NC(=O)CCC(=O)O)C(=O)O
The class given is biochemical, Escherichia coli.

Here are results for one protein from paper PMC3590144, “Determination of the Structure of the Catabolic N-Succinylornithine Transaminase (AstC) from Escherichia coli” (PLoS ONE, 2013).

B1: AstC (Escherichia coli K-12) (protein)
chain: MSQPITRENFDEWMIPVYAPAPFIPVRGEGSRLWDQQGKEYIDFAGGIAVNALGHAHPELREALNEQASKFWHTGNGYTNEPVLRLAKKLIDATFADRVFFCNSGAEANEAALKLARKFAHDRYGSHKSGIVAFKNAFHGRTLFTVSAGGQPAYSQDFAPLPADIRHAAYNDINSASALIDDSTCAVIVEPIQGEGGVVPASNAFLQGLRELCNRHNALLIFDEVQTGVGRTGELYAYMHYGVTPDLLTTAKALGGGFPVGALLATEECARVMTVGTHGTTYGGNPLASAVAGKVLELINTPEMLNGVKQRHDWFVERLNTINHRYGLFSEVRGLGLLIGCVLNADYAGQAKQISQEAAKAGVMVLIAGGNVVRFAPALNVSEEEVTTGLDRFAAACEHFVSRGSS
notes: full-length, native untagged, no plasmid; purified from E. coli BL21(DE3) by Ni-NTA and size exclusion as apo-protein, reconstituted with PLP; about 406 residues; dimer
In the case of B1, the Km (commonly the concentration of substrate that gives half-maximal velocity) in “purified protein [1]” was 4,391 µM; in the data set “purified protein [2]”, 338 µM; in the data set “purified protein [3]”, 284 µM. For the same protein, the kcat – broadly, the maximal rate divided by the concentration of active sites – in the data set “purified protein [1]” amounted to 3.5 s⁻¹; in the data set “purified protein [2]” it was 4.7 s⁻¹; in “purified protein [3]”, 3 s⁻¹. The values for the kcat/Km in the data set “purified protein [1]”, in the data set “purified protein [2]” and in the data set “purified protein [3]” were 797 M⁻¹ s⁻¹, 13900 M⁻¹ s⁻¹ and 10600 M⁻¹ s⁻¹, respectively.
